Test [1] addresses monomeric full length gp120 of BaL isolate (HIV-1 isolate BaL). The test can be described thus: SPR, mAb immobilised, 1:1 Langmuir.
Test [2] concerns the target single-chain gp120BaL-sCD4 complex (FLSC) (HIV-1 isolate BaL) (UniProt P01730). Kind of test: SPR, mAb immobilised, 1:1 Langmuir.
Test [3] has the same target. The test can be described thus: isothermal titration calorimetry, A32 IgG. On the technique in general: In ITC the heat of successive injections is recorded.

The source of these data is patent US20170283486A1.

Usually Kd stands for a measure of binding affinity in units of concentration. As usually defined, the koff is the rate constant with which the complex falls apart. Read a high koff as a short-lived complex. As a reminder, the kon is a measure of how fast the partners come together. Read a high kon as faster complex formation.

In test [1], mAb 2.2c (antibody) came in with an equilibrium dissociation constant (Kd) of 12 nM, an off-rate constant (koff) of 0.000875 s⁻¹ and a kon of 73000 M⁻¹ s⁻¹. In test [2], the Kd was 0.5 nM; the fold change of KD, FLSC relative to gp120BaL worked out at 24 fold; the fold change of ka, FLSC relative to gp120BaL stood at 15.7 fold; the fold change of kd, FLSC relative to gp120BaL came to 1.6 fold. Further, in test [2], the off-rate constant (koff) was found to be 0.000556 s⁻¹ and the kon stood at 1.15e+06 M⁻¹ s⁻¹.

Regarding mAb A32 (antibody), in test [1], the Kd was found to be 3.2 nM, the koff is 0.000437 s⁻¹ and the kon came out at 139000 M⁻¹ s⁻¹. For the same substance, in test [2], the Kd is 0.23 nM; the fold change of KD, FLSC relative to gp120BaL stood at 13.9 fold; the fold change of ka, FLSC relative to gp120BaL was 3.2 fold; the fold change of kd, FLSC relative to gp120BaL is 4.3 fold. In test [2], this substance registered an off-rate (koff) of 0.000102 s⁻¹ and a kon of 443000 M⁻¹ s⁻¹. In test [3], this substance yielded a Kd of 11.5 nM and a ΔH of -3.15 kcal/mol.

On to mAb JR4 (antibody), for which, in test [1], the dissociation constant Kd stood at 2.34 nM, the koff turned out to be 0.000611 s⁻¹ and the kon was found to be 262000 M⁻¹ s⁻¹. For the same substance, in test [2], the Kd turned out to be 0.18 nM; the fold change of KD, FLSC relative to gp120BaL is 13 fold; the fold change of ka, FLSC relative to gp120BaL stood at 2.5 fold; the fold change of kd, FLSC relative to gp120BaL came to 5.3 fold. In test [2], the dissociation rate constant (koff) was 0.000116 s⁻¹ and the on-rate (kon) is 643000 M⁻¹ s⁻¹.

For the substance mAb N5-i5 (antibody), in test [1], the Kd stood at 5.03 nM, the off-rate constant (koff) came out at 0.00036 s⁻¹ and the on-rate (kon) was 72000 M⁻¹ s⁻¹. Moreover, in test [2], the Kd is 0.29 nM; the fold change of KD, FLSC relative to gp120BaL is 17.3 fold; the fold change of ka, FLSC relative to gp120BaL came to 11.5 fold; the fold change of kd, FLSC relative to gp120BaL was 1.5 fold. In test [2], this substance came in with an off-rate (koff) of 0.000238 s⁻¹ and a kon of 825000 M⁻¹ s⁻¹.

As to mAb N60-i3 (antibody), in test [1], the Kd amounted to 2.03 nM, the koff came to 0.000512 s⁻¹ and the kon amounted to 253000 M⁻¹ s⁻¹. In test [2], this substance had an equilibrium dissociation constant (Kd) of 0.25 nM; a fold change of KD, FLSC relative to gp120BaL of 8 fold; a fold change of ka, FLSC relative to gp120BaL of 4.9 fold; a fold change of kd, FLSC relative to gp120BaL of 1.6 fold. In test [2], this substance had a koff of 0.000314 s⁻¹ and a kon of 1.24e+06 M⁻¹ s⁻¹.
